Laboratory results taken from patent US20080113383A1, “Hif Prolyl Hydroxylase Activity Assay” (Fibro Gen, Inc., priority 2004, published 2008).
Several values for one entry are separate records, joined by “and”; a condition that tells them apart may be missing. Identical values can stand only once. Where no end group is shown, it is not given here. [ ]: non-standard residue; d: D form. ΔPro = O=C(O)[C@@H]1C=CCN1; Aze = O=C(O)[C@@H]1CCN1

What was measured:
Assay type in all cases: biochemical
[1] = target: T1, EGLN1 (Homo sapiens, UniProt Q9GZT9); experiment: Standard reaction (I): EGLN enzyme activity with hydroxylatable peptide substrate, 14CO2 release from 2-oxo[1-14C]glutaric acid; conditions: for specificity of peptide for EGLN1, EGLN2 and EGLN3 compared: standard reaction (I) peptides, from Table 1 and FIGS. 3, 4
T1 sequence (Q9GZT9 whole entry): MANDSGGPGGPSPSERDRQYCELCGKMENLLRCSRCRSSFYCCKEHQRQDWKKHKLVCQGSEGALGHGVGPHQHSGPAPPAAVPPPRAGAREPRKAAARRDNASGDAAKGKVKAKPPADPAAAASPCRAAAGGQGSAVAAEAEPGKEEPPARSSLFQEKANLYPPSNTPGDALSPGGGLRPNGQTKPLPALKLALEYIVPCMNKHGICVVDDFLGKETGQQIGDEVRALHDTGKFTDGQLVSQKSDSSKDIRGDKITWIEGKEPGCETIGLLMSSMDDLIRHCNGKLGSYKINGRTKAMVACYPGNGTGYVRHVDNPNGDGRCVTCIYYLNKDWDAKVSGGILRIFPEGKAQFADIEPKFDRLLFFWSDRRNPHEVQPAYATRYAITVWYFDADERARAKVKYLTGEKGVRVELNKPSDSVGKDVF
Excerpt: (§1) Enzyme activity can be measured by monitoring the consumption of one or more reaction substrates, or accumulation of one or more reaction products. For example, enzyme activity in either the standard reaction (I) or the modified reaction (II) can be measured using a modified version of a method described by Kivirikko and Myllyla (1982, Methods Enzymol 82:245-304), which is based on the decarboxylation of 2-oxo[1-^14C]glutaric acid. In this method, radioactive ^14CO2 produced during the reaction is captured on base-impregnated filter papers and the captured radioactivity determined by liquid scintillation counting. In a particular embodiment, enzyme activity in standard reaction (I) was measured as described in Example 2 (infra).
(§2) In DLD19, methionine (M) residues were changed to alanine (A) residues due to potential oxidation of methionine during the assay reaction. Peptides used in the assay may additionally contain N-terminal and/or C-terminal blocking groups, e.g., N-terminal acetyl groups, C-terminal amide groups, etc. Enzyme activity in the presence of substrate peptides is provided supra as percent enzyme activity relative to enzyme activity in the presence of control peptide DTD20.
(§3) In all experiments, percent enzyme activity, e.g., as measured by substrate turnover, was less than 30% to insure all data obtained were in the linear range. Enzyme activity in standard reaction (I) was measured in a reaction volume of 1 mL containing EGLN enzyme preparation (10-400 μL), 0.05 μmole hydroxylatable peptide substrate, 0.1 μmole of 2-oxo[1-^14C]glutaric acid (160,000 dpm), 1 μmole of ascorbic acid, 60 μg of catalase and 50 μmole of HEPES buffer adjusted to pH 7.4 at 25° C. Optionally, 0.04 μmole FeSO4 was also be added to the reaction mix. Reactions were carried out at 37° C. for 20 minutes. In various reactions, ascorbate was replaced by 0.1 to 15 mM potassium ferrocyanide. Results are provided in Table 1 (supra) and FIGS. 3 and 4.

[2] = target: EGLN3 (Homo sapiens, UniProt Q9H6Z9); experiment: as above
Chain of EGLN3 (Q9H6Z9 whole entry): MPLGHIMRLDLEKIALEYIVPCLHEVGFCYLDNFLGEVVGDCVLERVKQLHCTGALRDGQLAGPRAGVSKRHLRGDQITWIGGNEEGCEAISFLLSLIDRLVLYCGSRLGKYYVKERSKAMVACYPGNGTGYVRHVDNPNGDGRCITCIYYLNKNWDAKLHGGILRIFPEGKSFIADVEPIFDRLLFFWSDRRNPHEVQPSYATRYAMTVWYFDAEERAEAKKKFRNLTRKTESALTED
Excerpt: as §1, §2, §3

[3] = target: EGLN2 (Homo sapiens, UniProt Q96KS0); experiment: as above; conditions: Table 1; enzyme activity relative to control peptide DTD20; 37° C., 20 minutes, pH 7.4
Chain of EGLN2 (Q96KS0 whole entry): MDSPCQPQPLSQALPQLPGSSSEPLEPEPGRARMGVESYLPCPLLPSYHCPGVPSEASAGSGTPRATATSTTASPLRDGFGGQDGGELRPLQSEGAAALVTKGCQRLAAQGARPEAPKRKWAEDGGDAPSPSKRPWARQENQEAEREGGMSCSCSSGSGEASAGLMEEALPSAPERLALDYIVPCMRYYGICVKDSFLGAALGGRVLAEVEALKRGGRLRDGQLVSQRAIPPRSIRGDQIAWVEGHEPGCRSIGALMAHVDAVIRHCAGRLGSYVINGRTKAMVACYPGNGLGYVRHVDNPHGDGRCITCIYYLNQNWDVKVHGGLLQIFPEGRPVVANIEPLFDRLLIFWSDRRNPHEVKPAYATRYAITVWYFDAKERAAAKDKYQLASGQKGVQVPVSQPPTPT
Excerpt: as §1, §2, §3

[4] = target: T1, EGLN1; experiment: Modified reaction (II): EGLN enzyme activity with non-hydroxylatable proline-analog peptide and reducing agent; conditions: modified reaction (II) peptides, from Tables 3, 4 and FIGS. 3, 4
Excerpt: The peptides shown in Table 3, which retain measurable activity in the present assay, are specifically contemplated for use in assays disclosed herein. These peptides are used in a reaction additionally requiring co-substrate 2-oxoglutarate and a reducing agent, e.g., ascorbate; an EGLN enzyme, and oxygen, as described below. The reaction may also include Fe^2+. The reaction proceeds according to the modified reaction (II), in which 2-oxoglutarate is converted to succinate and carbon dioxide, and the reducing agent is subsequently oxidized, e.g., ascorbate is oxidized to dehydroascorbate. […]
In still other embodiments, enzyme activity within the modified reaction (II) may be measured by disappearance of the reduced form of the reducing agent or appearance of the oxidized form of the agent. […] For example, when ascorbate is used in modified reaction (II), disappearance of ascorbate and/or appearance of dehydroascorbate may be measured, e.g., using HPLC. In particular embodiments, ascorbate may be added to modified reaction (II) in limiting quantity, and ascorbate is regenerated during the reaction with concomitant oxidation of NADH to NAD^+ using a modification of the method described by Diliberto and Allen (1981, J Biol Chem 256:3385-3393). […] HIF-PH activity is measured indirectly by consumption of NADH, which produces a reduction in absorbance at a wavelength of 340 nm. […]

[5] = Table 1, enzyme activity relative to control peptide DTD20, 37° C., 20 minutes, pH 7.4

Substance | specificity of peptide for EGLN1, EGLN2 and EGLN3 compared [1] | hydroxylation of peptide by EGLN1 [1] | hydroxylation of peptide by EGLN3 [2] | also measured
DTDLDFEALApYIPADDDFQ (DTDLDFEALAPYIPADDDFQ; not fully specified; printed as DTDLDFEALApYIPADDDFQ) [SEQ ID NO 19] | higher specificity for EGLN3 than for EGLN1 and EGLN2 |  |  | 
DTDLDWEMVSpYIPADDDFQ (DTDLDWEMVSPYIPADDDFQ; not fully specified (residue 11); printed as DTDLDWEMVSpYIPADDDFQ) [SEQ ID NO 90] |  | readily hydroxylated | readily hydroxylated | 
DTDLDLEARApYIPADDDFQ (DTDLDLEARAPYIPADDDFQ; not fully specified; printed as DTDLDLEARApYIPADDDFQ) [SEQ ID NO 15] | higher specificity for EGLN1 and EGLN2 than for EGLN3 |  |  | 
45 (DTDLDTEALAPYIPADDDFQ) [compound 45] |  |  |  | Activity (%) EGLN1 [1, 5]: 25.67% and 23.36%; Activity (%) EGLN2 [3]: 20.49% and 18.04%; Activity (%) EGLN3 [2, 5]: 64.55% and 60.23%
DTDLDYEMIApYIPADDDFQ (DTDLDYEMIAPYIPADDDFQ; not fully specified (residue 11); printed as DTDLDYEMIApYIPADDDFQ) [SEQ ID NO 89] |  | readily hydroxylated | readily hydroxylated | 
DTDLDWEAVSpYIPADDDFQ (DTDLDWEAVSPYIPADDDFQ; not fully specified (residue 11); printed as DTDLDWEAVSpYIPADDDFQ) [SEQ ID NO 91] |  | readily hydroxylated | readily hydroxylated | 
DTDLDMEALApYIPADDDFQ (DTDLDMEALAPYIPADDDFQ; not fully specified (residue 11); printed as DTDLDMEALApYIPADDDFQ) [SEQ ID NO 13] | higher specificity for EGLN3 than for EGLN1 and EGLN2 |  |  | 
DTDLDLEALA4YIPADDDFQ (DTDLDLEALA[ΔPro]YIPADDDFQ) [SEQ ID NO 62, 4 = 3,4-dehydroproline in place of the hydroxylated proline] |  |  |  | specificity of proline-analog peptide for EGLN1, EGLN2 and EGLN3 compared [4]: higher specificity for EGLN1 and EGLN2 than for EGLN3
DTDLDIEALApYIPADDDFQ (DTDLDIEALAPYIPADDDFQ; not fully specified; printed as DTDLDIEALApYIPADDDFQ) [SEQ ID NO 24] | higher specificity for EGLN3 than for EGLN1 and EGLN2 |  |  | 
DTDLDLEALA8YIPADDDFQ (DTDLDLEALA[Aze]YIPADDDFQ) [SEQ ID NO 63, 8 = L-azetidine-2-carboxylate in place of the hydroxylated proline] |  |  |  | specificity of proline-analog peptide for EGLN1, EGLN2 and EGLN3 compared [4]: higher specificity for EGLN3 than for EGLN1 and EGLN2
DTDLDWEMVApYIPADDDFQ (DTDLDWEMVAPYIPADDDFQ; not fully specified (residue 11); printed as DTDLDWEMVApYIPADDDFQ) [SEQ ID NO 92] |  | readily hydroxylated | readily hydroxylated | 
